Results: patent US10828354B2, “Laser-assisted intradermal administration of active substances” (PANTEC BIOSOLUTIONS AG, priority 2015, dated 2020)

B1: XCL1-OVA vaccibodies: homodimeric chimeric protein of XCL1 chemokine, dimerization unit of hinge and CH3 domain of human IgG3, and OVA antigen moiety (protein)
chain: VGTEVLEESSCVNLQTQRLPVQKIKTYIIWEGAMRAVIFVTKRGLKICADPEAKWVKAAIKTVDGRASTRKNMAETVPTGAQRSTSTAITLTGELKTPLGDTTHTCPRCPEPKSCDTPPPCPRCPEPKSCDTPPPCPRCPEPKSCDTPPPCPRCPAPELLGGPSVFLFPPKPKDTLMISRTPEVTCVVVDVSHEDPEVQFKWYVDGVEVHNAKTKPREEQYNSTFRVVSVLTVLHQDWLNGKEYKCKVSNKALPAPIEKTISKTKGQPREPQVYTLPPSREEMTKNQVSLTCLVKGFYPSDIAVEWESSGQPENNYNTTPPMLDSDGSFFLYSKLTVDKSRWQQGNIFSCSVMHEALHNRFTQKSLSLSPGKGSIGAASMEFCFDVFKELKVHHANENIFYCPIAIMSALAMVYLGAKDSTRTQINKVVRFDKLPGFGDSIEAQCGTSVNVHSSLRDILNQITKPNDVYSFSLASRLYAEERYPILPEYLQCVKELYRGGLEPINFQTAADQARELINSWVESQTNGIIRNVLQPSSVDSQTAMVLVNAIVFKGLWEKAFKDEDTQAMPFRVTEQESKPVQMMYQIGLFRVASMASEKMKILELPFASGTMSMLVLLPDEVSGLEQLESIINFEKLTEWTSSNVMEERKIKVYLPRMKMEEKYNLTSVLMAMGITDVFSSSANLSGISSAESLKISQAVHAAHAEINEAGREVVGSAEAGVDAASVSEEFRADHPFLFCIKHIATNAVLFFGRCVSP

What was measured:
[1] = test system: tumor infiltrating CD8+ and CD4+ T cells; experiment: Intracellular IFNgamma and tetramer staining of tumor-infiltrating T cells; assay type: in vivo, mouse; settings: day 11 after immunization, PMA and ionomycin restimulation
Procedure: D B6 mice were subcutaneously inoculated with B16-OVA or B16 and immunized 3 days later with 20 μl of PBS containing OVA (1.5 μg) or XCL1-OVA (2.5 μg) vaccibodies using laser-assisted, dermal delivery. On day 11 after immunization, the tumor mass of each mouse was excised and the percentage of […] cells determined among tumor infiltrating CD8^+ and CD4^+ T cells. Data are shown for each individual mouse and the mean (horizontal bar) is indicated for each condition. **, p<0.01; *, p<0.05 and NS for non significant.
A, B, C Mice were immunized as in FIG. 4C. […]
To assess whether the reduction in melanoma tumor growth observed upon treatment with XCL1-OVA vaccibodies was associated with the induction of endogeneous, antigen-specific CD8^+ T cells, wild-type and Xcr1^−/− mice were immunized via laser-assisted intradermal delivery of XCL1-OVA vaccibodies. Six days after immunization, the magnitude of OVA-specific T cell cytotoxicity was measured using an in vivo cytotoxic assay (FIG. 5 C). […]
Mice were injected subcutaneously (s.c.) into the flank with 10^5 B16-OVA or B16 melanoma cells (Brown et al, 2001). Tumor size was assessed 14 to 16 days later using a caliper. The presence of T cells infiltrating the tumor was assessed after enzymatic treatment of tumor mass with collagenase 2 (Worthington) and Percoll gradient (Amersham-Pharmacia). […]

[2] = test system: B16-OVA melanoma; experiment: B16-OVA melanoma tumor model; assay type: in vivo, mouse; settings: for tumor growth, therapeutic setting: B6 mice, immunized 3 days after s.c. inoculation, monitored 16 days after inoculation, vs OVA and PBS groups
Procedure: B Cohort of mice treated as specified in A with 20 μl of PBS containing OVA (low dose: 1.5 μg or high dose: 3.1 μg), or XCL1-OVA vaccibodies (low dose 2.5 μg or high dose 5.0 μg) were analyzed for tumor volume. Control mice were treated with 20 μl of PBS. Tumor volume is shown for each individual mouse and the mean (horizontal bar) is indicated for each condition.***, p<0.001; **, p<0.01; *, p<0.05 and NS: non significant.
C Time line of the prophylactic setting involving laser-assisted, dermal delivery of 20 μl of PBS containing OVA (1.5 μg) or XCL1-OVA vaccibodies (2.5 μg), subcutaneaous inoculation of the B16-OVA melanoma, and tumor volume measurement.
The B16-OVA melanoma is not rejected by immune-competent syngeneic B6 mice, unless mice have been subjected to prophylactic or therapeutic immunization. To evaluate the capacity of laser-assisted, intradermal delivery of XCL1-OVA vaccibodies to inhibit the growth of B16-OVA tumors, B6 mice were subcutaneously inoculated in the flank with B16-OVA cells (FIG. 4A). Three days later, the ear of the mice was subjected to laser-assisted, dermal delivery of XCL1-OVA vaccibodies and tumor growth was monitored 16 days after inoculation. For the sake of comparison, mice received equimolar amounts of free OVA or PBS. […] To investigate the prophylactic effects on tumor growth of laser-assisted intradermal XCL1-OVA immunization, B6 mice were immunized with XCL1-OVA vaccibodies and subcutaneously inoculated with B16-OVA tumor cells 30 days later (FIG. 4C).
(§1) Mice were injected subcutaneously (s.c.) into the flank with 10^5 B16-OVA or B16 melanoma cells (Brown et al, 2001). Tumor size was assessed 14 to 16 days later using a caliper. The presence of T cells infiltrating the tumor was assessed after enzymatic treatment of tumor mass with collagenase 2 (Worthington) and Percoll gradient (Amersham-Pharmacia).

[3] = test system: OT-I CD8+ and OT-II CD4+ T cells; experiment: Proliferation of adoptively transferred CTV-labeled OT-I and OT-II T cells after laser-assisted dermal antigen delivery; assay type: in vivo, mouse
Procedure: B Single-cell suspension were prepared from ear-draining, auricular LNs from B6 mice that received OT-I and OT-II T cells and were immunized by applying on laser-microporated ear 20 μl of PBS containing OVA (3.1 μg), XCL1-OVA vaccibodies (5 μg), XCL1 (1.8 μg) plus OVA (3.1 μg), or PBS alone as a control. CTV dilution of OT-I and OT-II T cells was measured 72 h after antigen delivery. Numbers in histograms indicate the percentage of divided T cells (n=3).
To test whether targeting XCR1^+ dermal DCs with antigen-loaded XCL1-based vaccibodies induced the activation of antigen-specific T cells in vivo, the model antigen OVA was inserted into XCL1-based vaccibodies. Mice were adoptively transferred with CellTraceViolet (CTV)-labeled, OT-I CD8^+ T cells, which express a T cell receptor (TCR) specific for SIINFEKL, an ovalbumin (OVA) peptide presented by H-2K^b, and OT-II CD4^+ T cells, which express a TCR specific for an OVA peptide presented by H2-A^b. One day later, the ear of the mice were subjected to laser-assisted microporation and topical application of XCL1-OVA vaccibodies. To compare the potency of the XCL1-OVA formulation with that of free OVA, mice were also treated with concentrations of OVA equimolar to that present in XCL1-OVA vaccibodies. Three days after immunisation, single-cell suspensions were prepared from ear-draining auricular lymph nodes (LNs) and the extent of OT-I and OT-II cell proliferation was determined by CTV dilution (FIG. 3A).
A P.L.E.A.S.E. portable laser developed by Pantec Biosolutions AG (Bach et al, 2012) was used with the following setting: fluence: 11.9 J/cm^2, pulse duration: 75 μs; RepRate: 200 Hz; pulses per pore: 2, pore array size: 14 mm^2 and pore density 8%. P.L.E.A.S.E.-assisted skin microporation was performed on the ear of anesthetized mice. 20 μl of sterile PBS, 20 μl of sterile PBS containing 1.5 μg (low) or 3.1 μg (high) OVA, or 20 μl of sterile PBS containing 2.5 μg (low) or 5 μg (high) XCL1-OVA were then evenly applied on the microporated ear surface. The PBS solution percolated inside the micropores in less than 10 minutes.
OT-I and OT-II T cells were isolated from pooled LNs and spleen of OT-I or OT-II mice kept on a Rag-2^−/−-B6 [CD45.1] background using CD8^+ and CD4^+ T cell negative isolation kits (Dynal, Invitrogen), respectively. Purity was determined by staining with CD4, CD8, CD5 and TCR Vα2. For CTV labeling, purified OT-I and OT-II T cells were resuspended in PBS containing 2.5 mM cell trace violet (CTV) (Molecular Probes) for 3 min at room temperature. 10^6 CTV-labeled OT-I and OT-II T cells were adoptively transferred into the specified mice. At the indicated times, single-cell suspensions were prepared from the auricular LNs draining the immunized ears and OT-I and OT-II T cells were analyzed by FACS.

[4] = test system: B16 melanoma; experiment: B16 melanoma tumor model; assay type: in vivo, mouse; settings: B6 mice immunized 3 days after inoculation, day 11 after immunization
Procedure: A B6 mice were subcutaneously inoculated with B16-OVA or B16 melanoma, and immunized 3 days later with XCL1-OVA vaccibodies using laser-assisted, dermal delivery. On day 11 after immunization, the volume of the tumor developing in each mouse was determined. Data are shown for each individual mouse and the mean (horizontal bar) is indicated for each condition. **, p<0.01.
The B16-OVA melanoma is not rejected by immune-competent syngeneic B6 mice, unless mice have been subjected to prophylactic or therapeutic immunization. To evaluate the capacity of laser-assisted, intradermal delivery of XCL1-OVA vaccibodies to inhibit the growth of B16-OVA tumors, B6 mice were subcutaneously inoculated in the flank with B16-OVA cells (FIG. 4A). Three days later, the ear of the mice was subjected to laser-assisted, dermal delivery of XCL1-OVA vaccibodies and tumor growth was monitored 16 days after inoculation. For the sake of comparison, mice received equimolar amounts of free OVA or PBS. […]
as §1

[5] = test system: SIINFEKL peptide-pulsed splenocytes; experiment: In vivo cytotoxicity assay; design: species or system mouse
Procedure: C B6 (WT) and Xcr1^−/− mice were subjected to laser-assisted, dermal delivery of 20 μl of PBS containing OVA (1.5 μg) or XCL1-OVA (2.5 μg) vaccibodies or of 20 μl of PBS (control), or. On day 6, mice were injected with CFSE-labeled target cells to quantitate the induced OVA-specific cytotoxicity in vivo (see Materials and Methods). The percent specific lysis is shown for each individual mouse and the mean (horizontal bar) is indicated for each condition. *, p<0.05.
To assess whether the reduction in melanoma tumor growth observed upon treatment with XCL1-OVA vaccibodies was associated with the induction of endogeneous, antigen-specific CD8^+ T cells, wild-type and Xcr1^−/− mice were immunized via laser-assisted intradermal delivery of XCL1-OVA vaccibodies. Six days after immunization, the magnitude of OVA-specific T cell cytotoxicity was measured using an in vivo cytotoxic assay (FIG. 5 C). […] Therefore, laser-assisted, intradermal delivery of XCL1-OVA vaccibodies induced anti-tumoral responses that can be correlated with the presence of OVA-specific IFNgamma^+ T cells in the regressing tumor mass.
Splenocytes from B6 mice were pulsed with the SIINFEKL peptide or left untreated and labeled with low (0.25 mM) or high (2.5 mM) dose of CTV, respectively. […] 36 h later, single-cell suspension were prepared from spleen and the ratio of CTV^high to CTV^low cells was determined by FACS.

[6] = B6 mice, auricular LNs, 3 days after immunisation

Row | Molecule | IFN gamma production by CD8+ and CD4+ T cells infiltrating B16-OVA tumor mass [1] | tumor growth, therapeutic setting [2] | effectiveness at eliciting CD4+ T cell proliferation relative to free OVA, per molecule [3, 6] [times] | effectiveness at eliciting CD8+ T cell proliferation relative to free OVA, per molecule [3, 6] [times] | OT-I and OT-II cell proliferation (CTV dilution) compared with free OVA ([3]; B6 mice, ear-draining auricular LNs, 72 h after laser-assisted delivery, equimolar amounts) | magnitude of OT-I and OT-II proliferation ([3]; Xcr1−/− mice) | proliferation of OT-I and OT-II T cells outside draining LNs ([3]; spleen and LNs that drain territories distinct from the ear, 72 h) | tumor growth of B16 melanoma [4] | OVA-specific T cell cytotoxicity in vivo (specific lysis) ([5]; Xcr1−/− mice) | OVA-specific T cell cytotoxicity in vivo ([5]; wild-type mice, six days after immunization, vs PBS treated mice) | inhibition of B16-OVA tumor growth, XCR1 dependence ([2]; B6 (WT) vs Xcr1−/− mice) | tumor growth, prophylactic setting ([2]; B6 mice immunized 30 days before inoculation, monitored 14 days after inoculation, vs OVA and PBS) | tumor growth, therapeutic setting, high dose vs low dose ([2]; high dose 5.0 μg XCL1-OVA)
1 | ovalbumin [model antigen ovalbumin in free form, equimolar comparator, reference compound] | did not induce IFN[…]^+ T cells over PBS control | unable to slow down tumor growth | – | – | – | – | – | – | – | – | – | – | –
2 | B1 | capable of producing interferon (IFN) gamma | significantly suppressed tumor growth | 3 | 15 | triggered a higher proliferation of OT-I and OT-II cells than free OVA | comparable to that of OVA | showed no sign of proliferation | not able to control the growth of B16 melanoma | absence of detectable lysis | induced a significant T cell cytotoxicity | dependent on the expression of XCR1 | significantly slowed down tumor growth | tumor growth was further reduced
